Source: PMC4245933
Changes are numbered by the printed parent chain.

T1: His-KDM4D-FL (human, UniProt Q6B0I6 1-523)
T1 sequence: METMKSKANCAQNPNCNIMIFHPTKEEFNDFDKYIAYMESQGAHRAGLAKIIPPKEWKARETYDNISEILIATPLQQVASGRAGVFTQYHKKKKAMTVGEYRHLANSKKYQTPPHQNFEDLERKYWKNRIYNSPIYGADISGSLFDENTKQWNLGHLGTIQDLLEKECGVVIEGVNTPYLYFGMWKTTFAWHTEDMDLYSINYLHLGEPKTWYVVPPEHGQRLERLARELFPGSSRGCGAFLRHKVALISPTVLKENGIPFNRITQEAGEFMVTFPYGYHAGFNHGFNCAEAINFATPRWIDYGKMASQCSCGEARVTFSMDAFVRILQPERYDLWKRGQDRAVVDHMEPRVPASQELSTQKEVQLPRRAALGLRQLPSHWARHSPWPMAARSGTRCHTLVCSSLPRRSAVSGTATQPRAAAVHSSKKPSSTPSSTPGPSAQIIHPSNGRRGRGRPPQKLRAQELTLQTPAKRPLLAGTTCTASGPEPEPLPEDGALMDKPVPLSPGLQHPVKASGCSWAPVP

T2: His-KDM4D1-350 (human, UniProt Q6B0I6 1-350)
T2 sequence: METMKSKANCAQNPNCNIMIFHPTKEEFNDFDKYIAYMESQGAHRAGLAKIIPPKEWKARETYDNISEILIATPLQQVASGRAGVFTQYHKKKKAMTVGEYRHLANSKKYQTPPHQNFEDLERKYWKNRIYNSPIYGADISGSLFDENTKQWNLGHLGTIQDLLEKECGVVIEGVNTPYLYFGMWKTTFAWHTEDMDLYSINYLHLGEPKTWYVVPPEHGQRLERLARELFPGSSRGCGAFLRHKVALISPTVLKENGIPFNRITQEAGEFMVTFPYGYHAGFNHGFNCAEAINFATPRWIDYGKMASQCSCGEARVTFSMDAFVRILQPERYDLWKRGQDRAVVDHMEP

T3: His-KDM4D1-350-1H4R-HRK (human, UniProt Q6B0I6 1-350, H115A;R123A;K127A;H219A;R222A;R225A;R228A;R236A)
T3 sequence: T2 sequence with H115A, R123A, K127A, H219A, R222A, R225A, R228A, R236A

T4: His-KDM4D-FL-1H4R-HRK (human, UniProt Q6B0I6 1-523, H115A;R123A;K127A;H219A;R222A;R225A;R228A;R236A)
T4 sequence: T1 sequence with H115A, R123A, K127A, H219A, R222A, R225A, R228A, R236A

T5: GST-KDM4D348-523 (human, UniProt Q6B0I6 348-523)
T5 sequence: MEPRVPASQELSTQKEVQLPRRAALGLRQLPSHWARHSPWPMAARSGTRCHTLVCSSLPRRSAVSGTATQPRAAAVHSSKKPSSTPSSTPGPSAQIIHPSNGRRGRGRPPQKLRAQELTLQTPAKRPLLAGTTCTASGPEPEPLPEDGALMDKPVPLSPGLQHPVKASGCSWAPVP

T6: His-KDM4D-N202M (human, UniProt Q6B0I6 1-523, N202M)
T6 sequence: T1 sequence with N202M

B1: 22nt RNA (RNAF-22) (ssRNA)
RNA: UUAACACAAAAUACGCACCCCA
B2: 37nt RNA (ssRNA)
RNA: GGGCGAAUUGGGCCCGACGUCGCAUGCUCCCGGCCGC
B3: 100nt RNA (ssRNA)
RNA: GGGCGAAUUGGGCCCGACGUCGCAUGCUCCCGGCCGCCAUGGCGGCCGCGGGAAUUCGAUUAGUUCCCCUAAUAAUCGGUGCCCCCGAUAUGGCGUUUA

Assays:
His-KDM4D-FL [1] = target: T1, His-KDM4D-FL; assay: fluorescence anisotropy
His-KDM4D1-350 [2] = target: T2, His-KDM4D1-350; assay: fluorescence anisotropy
His-KDM4D1-350-1H4R-HRK = target: T3, His-KDM4D1-350-1H4R-HRK; assay: fluorescence anisotropy
His-KDM4D-FL [3] = target: T1, His-KDM4D-FL; assay: EMSA
His-KDM4D-FL-1H4R-HRK = target: T4, His-KDM4D-FL-1H4R-HRK; assay: EMSA
GST-KDM4D348-523 = target: T5, GST-KDM4D348-523; assay: EMSA
His-KDM4D1-350 [4] = target: T2, His-KDM4D1-350; assay: EMSA
His-KDM4D-N202M = target: T6, His-KDM4D-N202M; assay: EMSA

Row | Binder | Kd (His-KDM4D-FL [1]) | Kd (His-KDM4D1-350 [2]) | binding result (His-KDM4D1-350-1H4R-HRK) | Kd (His-KDM4D-FL [3]) | Kd (His-KDM4D-FL-1H4R-HRK) | Kd (GST-KDM4D348-523) | Kd (His-KDM4D1-350 [4]) | Kd (His-KDM4D-N202M)
1 | B1 | ~126 nM | ~1220 nM | no binding | – | – | – | – | –
2 | B2 | – | – | – | < 50 nM | – | – | – | –
3 | B3 | – | – | – | ~20 nM | > 100 nM | > 100 nM | ~80 nM | ~15 nM
